Experiments:
Assay type in all cases: biochemical
[1] = target: T1, purified human elastase (HE) (Homo sapiens, UniProt P08246); assay: 125I-Fibronectin assay with purified human elastase; details: enzyme concentration 4 nM, FIG. 3
T1 sequence (P08246 30-267): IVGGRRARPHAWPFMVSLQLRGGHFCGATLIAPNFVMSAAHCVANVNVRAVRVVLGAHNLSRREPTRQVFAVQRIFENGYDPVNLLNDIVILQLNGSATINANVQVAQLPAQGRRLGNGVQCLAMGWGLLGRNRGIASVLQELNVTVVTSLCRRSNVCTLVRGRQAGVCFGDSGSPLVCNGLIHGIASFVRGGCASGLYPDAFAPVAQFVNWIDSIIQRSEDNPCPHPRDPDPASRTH
Procedure: This assay is designed to model the degradation of connective tissue. […] Briefly, purified human plasma fibronectin (fn) is radiolabeled with ^125 I using Enzymobeads and conventional procedures. The desalted is diluted with fn to yield ca. cpm/ug. This material is further diluted with pH 9.6 barbital buffer and 200 ul (30 ug fn, 50000 cpm) is pipetted into the wells of a flat bottomed 96 well microtiter plate. The plates are dried for about 24 hours at 37° C. and unbound fn is removed with 2 washes of phosphate buffered saline (PBS). The plates are stored at 4° C. and are stable for at least 2 weeks.
For an assay each coated well is filled with a total volume of 200 μl. All measurements are carried out at optimal pH and buffer conditions. After addition of proteolytic activity with or without inhibitor the plate is incubated at 37° C. for 3 hours. The well contents are centrifuged and a 100 μl aliquot is counted for 1251gamma radiation. Some assays employed elastase activity derived from freshly prepared neutrophils (PMN). ln this case an activating agent to stimulate the PMN is present in the well and the PMN is added last. A standard curve showing the linearity of the response to the amount of purified human elastase (HE) added is obtained concurrently with each assay.

Human Sputum Elastase = target: T2, Human Sputum Elastase (Homo sapiens, UniProt P08246); assay: Elastase assay (spectrophotometric, p-nitroanilide substrate)
T2 construct: Human Sputum Elastase, product No. SE-563 EPC, Inc., Pacific, Mo; USA, Lot 85701; purchased EPC, Inc., Pacific, Mo; USA SE-563; host or cells: human sputum
T2 sequence (P08246 30-267): T1 sequence (P08246 30-267)
Protocol: (§1) The inhibitory activity of the polypeptides of the present invention can be easily assayed using in vitro assays. In these types of spectrophotometric assays the activity of the serine protease is measured toward an appropriate p-nitroanilide substrate in the presence and absence of the peptide inhibitor. The enzyme catalyzed hydrolysis of the peptide p-nitroanilide substrate produces p-nitroanaline which results in an increase in absorbance which is monitored in the range of 405 to 410 nm. The rate of increase in absorbance is a measure of the enzymatic activity and the decrease in this rate relative to a suitable control is used to ascertain inhibition. The general assay procedure and details of the particular assays employed in the examples are provided in the Appendix following the examples. It is also possible to test the polypeptides in a functionally oriented assay that emulates in vivo conditions. Such an inhibition assay for elastase is also described in the Appendix.
(§2) Generalized Protocol Spectrophotometric Assays:
(§3) (1) Pipette 100 μl of enzyme solution into a disposable polystyrene cuvette (1 cm optical path length).
(§4) (2) Add (1900-X) μl of bufferto the cuvette, where X is the volume of test solution in microliters that is added in the next step.
(§5) Add X μl of test solution to the cuvette, where X ranges from 0 μl for the control to a maximum of about 500 μl. Incubate the solution for a period of 1 to 5 minutes at ambient temperature.
(§6) (4) Add 100 μl of substrate solution to the cuvette. Mix the contents by covering the cuvette with a piece of paraffin film and repeatedly inverting for a period of 5 to 15 seconds.
(§7) (5) Record the change in absorbance for about 5 minutes at either 405 or 410 nm, depending on the assay, with a spectrophotometer equipped with a suitable recording device.
(§8) The percent inhibition is calculated from the formula [formula] where (ΔA/min) is the initial rate of absorbance change.
(§9) (7) For more accurate quantitative determinations temperature control of the cuvette holders and the reagent solutions can be instituted.
(§10) (8) The test solution can be crude oxidized peptide prepared as described above, fractions from a chromatographic separation or purified polypeptides.
(A) Buffer Solution - Tris-NaCl buffer consisting of 0.1M Tris-HCl pH 7.5 at 25° C. containing 0.5M NaCl and 0.01% (w/v) NaNs.
(B) Substrate Solution - Dissolve 45.5 mg of N-succinyl-L-alanyl-L-alanyl-L-alanine p-nitroanilide in 1 ml of 1-methyl-2-pyrrolidinone. Add 32 ml of Tris-NaCl buffer.
(C) Enzyme Solution - Human Sputum Elastase, product No. SE-563 EPC, Inc., Pacific, Mo. USA, Lot 85701. Dissolve 1 mg in 1 ml of Tris-NaCl buffer. Store on ice or at 4° C.
(D) Test Solution - See general protocol, number 8.
Procedure: Use the above solutions in the general protocol described above.
(1) Buffer Solution - Tris-NaCl buffer -see Method 1.
(2) Substrate Solution - Dissolve 50 mg of 3-carbomethoxypropionyl-L-alanyl-L-alanyl-L-[…]-L-valine p-nitroanilidein 1 ml of 1-methyl-2-pyrrolidinone. Add 32 ml of Tris-NaCl buffer.
(3) Enzyme Solution - Human sputum elastase, product No. SE-563, EPC, inc. Pacific, Mo. USA, Lot 85071. Prepare a sample at a concentration of 0.01 mg per ml of Tris-NaCl buffer. Store on ice.
(4) Test Solution - general protocol, number 8.
Procedure: Use the above solutions in the general protocol.
(1) Porcine pancreatic elastase may be substituted for human elastase when it is desired to test for an inhibitor of the former.
(2) The activity of an elastase preparation can be calculated as [formula]
(3) The Tris-NaCl buffer also can be pH 8.0 with 0.03% sodium azide. Results should be compared at a single pH.

Human Sputum Cathepsin G = target: T3, Human Sputum Cathepsin G (Homo sapiens, UniProt P08311); assay: Cathepsin G assay (spectrophotometric, p-nitroanilide substrate); details: inhibitor/protease ratio between about 10/1 and 50/1
T3 construct: Human Sputum Cathepsin G (Product No. SG-45, EPC, Inc., Pacific, Mo.); purchased EPC, Inc., Pacific, Mo; SG-45; host or cells: human sputum
T3 sequence (P08311 21-255): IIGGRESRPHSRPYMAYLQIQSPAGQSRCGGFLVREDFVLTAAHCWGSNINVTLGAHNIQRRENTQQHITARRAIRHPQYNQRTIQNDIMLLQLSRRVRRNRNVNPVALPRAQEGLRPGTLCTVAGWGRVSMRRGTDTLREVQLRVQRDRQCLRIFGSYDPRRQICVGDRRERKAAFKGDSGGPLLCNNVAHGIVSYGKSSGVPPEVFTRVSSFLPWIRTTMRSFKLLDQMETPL
Protocol: as §1, §2, §3, §4, §5, §6, §7, §8, §9, §10
(A) Buffer Solution - Tris-NaCl buffer consisting of 0.1M Tris-HCl, pH 8.0 containing 0.5M NaCl and 0.03% sodium azide.
(B) Substrate solution - Dissolve 50 mg of N-succinyl-L-alanyl-L-alanyl-L-prolyl-L-phenylalanine p-nitroanilide in 1 ml of 1-methyl-2-pyrrolidinone and dilute to 50 ml with Tris-NaCl buffer.
(C) Enzyme Solution - Human Sputum Cathepsin G (Product No. SG-45, EPC, Inc., Pacific, Mo.). Dissolve 1 mg of protein per 1 ml of Tris-NaCl buffer. Store on ice or at 4° C.
(D) Test Solutions - See the general protocol, number 8.
Procedure: Use the above solution in the general protocol described above. […]

purified HE = target: T4, purified HE (Homo sapiens, UniProt P08246); assay: 3H-Elastin assay with purified HE; details: FIG. 4
T4 sequence (P08246 30-267): T1 sequence (P08246 30-267)
Protocol: The inhibition of elastolysis by peptide 8 was investigated using the ^3 H-elastin assay and purified HE.
Another, yet less sensitive, assay employs radiolabelled elastin as the solid substrate in order to imitate degradation of connective tissue.
Radiolabeling of bovine neck ligament elastin is carried out with tritiated sodium borohydride as described by Stone, et al. (Anal. Biochem., 1977, 80:572-577). Elastin coated microtiter plates are prepared essentially as described above for the fibronectin plates. The assay is run similarly except that the supernatant is added to a scintillation cocktail for counting. The linearity of the responses to purified HE is also tested.

“RVCPVILMKCKKDSDCLAECVCLEHGYCG (RVCPVILMKCKKDSDCLAECVCLEHGYCG) [Peptide 8]” was tested, and the “inhibition of 125I fibronectin degradation” value [1] was “nearly the same inhibitory profile against purified human elastase (HE) and PMN-derived HE activity”, the “titration curve for elastase inhibition” value (Human Sputum Elastase; FIG. 2) was “essentially stochiometric inhibition” and the “Inhibitory Activity Elastase” value (Human Sputum Elastase; inhibitor/protease ratio between about 10/1 and 50/1) was “++ (Represents greater than 50% inhibition)”. For the same substance, the “Inhibitory Activity Cathepsin G” value (Human Sputum Cathepsin G) was “- (Represents less than 10% inhibition)” and the inhibition of elastolysis (purified HE) was “equally effecive for these two connective tissue substrates”.
